Test [1] concerns the target T1, human/cynomolgus monkey ROR1 protein (Acro Biosystems, Cat. No.: RO1-H522y) (human/cynomolgus monkey, UniProt Q01973 30-403).
T1 construct: Bought SPR analyte
In words: SPR (Biacore), antibody captured on anti-hIgG CM5 chip, ROR1 protein as analyte, method of Example 5. (SPR reads the build-up and loss of mass on a sensor chip optically.)

The target in test [2] is T2, ROR1 naturally expressed on human tumor cell lines (A549, Jeko-1, SW620, PA-1) (human, UniProt Q01973 30-937).
T2 construct: whole, on cells; also called cells expressing ROR1
In words: FACS on SW620 cells naturally expressing ROR1.

The target of test [3] is T2, ROR1 naturally expressed on human tumor …. In words: FACS on Jeko-1 cells naturally expressing ROR1.
For test [4] the target is unchanged. In words: FACS on PA-1 cells naturally expressing ROR1.
The target is the same in test [5]. In words: FACS on SW620 cells naturally expressing ROR1. This is another data set of the same source.
Test [6] addresses T3, human ROR1 on stably transfected cells (NCI-H1993-ROR1, MDA-MB-468-ROR1, NCI-H1975-ROR1, 293T-ROR1-NF-kB) (human, UniProt Q01973 30-937). In words: cell-based or functional assay.
In test [7] the target is T2, ROR1 naturally expressed on human tumor …. In words: FACS on Jeko-1 cells naturally expressing ROR1. The source holds these as a separate data set.
Test [8] has the same target. In words: FACS on PA-1 cells naturally expressing ROR1. The source holds these as a separate data set.
Test [9] has as its target T3, human ROR1 on stably transfected cells …. In words: cell-based or functional assay. This is another data set of the same source.
For test [10], the target named is T2, ROR1 naturally expressed on human tumor …. In words: cell-based or functional assay.

T2 sequence (Q01973 30-937): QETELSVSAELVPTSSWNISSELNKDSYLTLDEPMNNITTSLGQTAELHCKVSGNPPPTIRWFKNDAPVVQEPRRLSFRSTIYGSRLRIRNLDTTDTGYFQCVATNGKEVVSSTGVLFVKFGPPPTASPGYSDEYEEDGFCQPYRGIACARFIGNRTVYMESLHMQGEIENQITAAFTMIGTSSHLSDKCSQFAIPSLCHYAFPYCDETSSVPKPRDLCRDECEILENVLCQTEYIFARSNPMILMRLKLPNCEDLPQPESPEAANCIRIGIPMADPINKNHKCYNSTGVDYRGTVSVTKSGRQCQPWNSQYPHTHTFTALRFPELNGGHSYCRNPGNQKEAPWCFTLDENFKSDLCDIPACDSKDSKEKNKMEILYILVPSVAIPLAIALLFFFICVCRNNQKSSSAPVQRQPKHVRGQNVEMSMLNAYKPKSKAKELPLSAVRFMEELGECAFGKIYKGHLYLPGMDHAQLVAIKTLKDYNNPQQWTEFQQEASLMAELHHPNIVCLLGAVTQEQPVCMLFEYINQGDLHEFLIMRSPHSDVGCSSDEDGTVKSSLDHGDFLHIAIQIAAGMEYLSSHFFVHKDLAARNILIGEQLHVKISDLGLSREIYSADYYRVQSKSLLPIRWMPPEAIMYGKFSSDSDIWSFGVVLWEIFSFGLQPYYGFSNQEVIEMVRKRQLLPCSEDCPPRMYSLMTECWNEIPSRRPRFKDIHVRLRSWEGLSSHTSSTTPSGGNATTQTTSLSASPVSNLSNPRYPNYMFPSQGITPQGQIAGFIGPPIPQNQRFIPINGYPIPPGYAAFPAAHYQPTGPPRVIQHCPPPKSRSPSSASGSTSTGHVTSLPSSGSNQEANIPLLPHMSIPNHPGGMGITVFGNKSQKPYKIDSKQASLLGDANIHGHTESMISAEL
T3 sequence (Q01973 30-937 limits assumed): as the sequence (Q01973 30-937) above
T1 sequence (Q01973 30-403 limits assumed): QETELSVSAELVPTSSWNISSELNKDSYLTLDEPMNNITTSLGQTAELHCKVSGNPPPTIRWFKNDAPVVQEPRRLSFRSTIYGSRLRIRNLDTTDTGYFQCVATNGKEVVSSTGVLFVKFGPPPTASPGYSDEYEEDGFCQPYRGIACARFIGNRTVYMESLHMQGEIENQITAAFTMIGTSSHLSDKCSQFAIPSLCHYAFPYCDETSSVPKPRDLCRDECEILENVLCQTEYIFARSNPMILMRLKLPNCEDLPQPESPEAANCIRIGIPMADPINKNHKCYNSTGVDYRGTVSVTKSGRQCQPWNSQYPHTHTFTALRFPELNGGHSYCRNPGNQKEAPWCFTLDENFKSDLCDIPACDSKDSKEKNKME

B1: hz135A2B10-1.2 (antibody, human IgG1, kappa, V domains shown)
VH: QVQLVESGGGLVQPGGSLRLSCAASGFAFSTYGMAWVRQAPGKGLEWVASIHKGGFSTYYPDNVKGRFTISRDNDKNSLYLQMNSLRAEDTAVYYCIRHDWDGAMDYWGQGTLVTVSS
VL: DIQMTQSPSSLSASVGDRVTITCKASQDINSYLNWYQQKPGKAPKTLIYRANRLVDGVPSRFSGSGSGQDYTLTISSLQPEDFATYYCLQFDEFPYTFGQGTKVEIKR
notes: Humanized, human IgG1/kappa
Broadly, the Kd is the free concentration of one partner at which half of the binding sites on the other are occupied at equilibrium, for simple one-to-one binding. Broadly, the koff is the rate constant with which the complex falls apart. What is called kon is the rate constant with which the complex forms. Broadly, the EC50 is the midpoint of the concentration-response curve. For B1, in test [1], the Kd was determined as 0.569 nM, the dissociation rate constant (koff) came to 0.000596 s⁻¹ and the kon is 1.05e+06 M⁻¹ s⁻¹. Moreover, in test [2], the response was half-maximal at 0.034 nM (EC50) and the “Top (MFI)” value was determined as 30400 MFI. For the same molecule, in test [3], the 50% effective concentration (EC50) was found to be 0.022 nM and the “Top (MFI)” value is 89700 MFI. In addition, in [4], the midpoint of the response, the EC50, lay at 0.217 nM and the “Top (MFI)” value was 238000 MFI.

B2: hz135A2B10-1.3 (antibody, human IgG1, kappa, V domains shown)
VH: QVQLVESGGGLVQPGGSLRLSCAASGFAFSTYGMAWVRQAPGKRLEWVASIHKGGFSTYYPDNVKGRFTISRDNDKNSLYLQMNSLRAEDTAVYYCIRHDWDGAMDYWGQGTLVTVSS
VL: DIQMTQSPSSLSASVGDRVTITCKASQDINSYLNWYQQKPGKAPKTLIYRANRLVDGVPSRFSGSGSGQDYTLTISSLQPEDFATYYCLQFDEFPYTFGQGTKVEIKR
notes: Humanized, human IgG1/kappa
Take B2: in [1], the Kd was found to be 0.575 nM, the koff was determined as 0.000567 s⁻¹ and the association rate constant (kon) is 985000 M⁻¹ s⁻¹. Besides, in test [2], it took 0.047 nM to reach a half-maximal effect (EC50) and the “Top (MFI)” value is 29900 MFI. Further, in test [3], the concentration giving a half-maximal response (EC50) turned out to be 0.024 nM and the “Top (MFI)” value worked out at 86700 MFI. In test [4], the EC50 came out at 0.192 nM and the “Top (MFI)” value was 249000 MFI.

B3: hz137G11D10-2.1 (antibody, human IgG1, kappa, V domains shown)
VH: QVQLQESGPGLVKPSQTLSLTCTVSGYSITSDYAWNWIRQHPGKGLEWIGYITYSASTSYNPSLKSRVTISRDTSKNQFSLKLSSVTAADTAVYYCARGAGTYYFDYWGQGTLVTVSS
VL: DIQMTQSPSSLSASVGDRVTITCITSTDIDEDMNWYQQKPGKAPKLLIYEDNSLRPGVPSRFSGSGYGTDFTLTISSLQPEDFATYYCLQTNNLPLTFGQGTKVEIKR
notes: Humanized, human IgG1/kappa
In [1], B3 registered an equilibrium dissociation constant (Kd) of 0.289 nM, a koff of 0.000792 s⁻¹ and an on-rate constant (kon) of 2.74e+06 M⁻¹ s⁻¹. Also, in [5], the midpoint of the response, the EC50, lay at 0.009 nM and the “Top (MFI)” value turned out to be 29500 MFI. In addition, the “Internalization EC50 (nM), NCI-H1975-ROR1 cells, pH-dependent endocytosis reagent, FACS” value in [6] came to 12.4 nM. For the same molecule, in [7], the EC50 stood at 0.01 nM and the “Top (MFI)” value came out at 88000 MFI. In test [8], the 50% effective concentration (EC50) was 0.053 nM and the “Top (MFI)” value came out at 227000 MFI. Besides, in test [9], the “Internalization EC50 (nM), MDA-MB-468-ROR1 cells, pH-dependent endocytosis reagent, FACS” value came to 1.44 nM and the “Internalization EC50 (nM), NCI-H1993-ROR1 cells, pH-dependent endocytosis reagent, FACS” value was determined as 1.24 nM. In addition, the “ADCC reporter gene assay EC50 (nM), PA-1 target cells, recombinant Jurkat effector cells” value in test [10] was determined as 0.04 nM.

The record behind these values is EP4772535A1 (Chia Tai Tianqing Pharmaceutical Group Co., Ltd., dated 2026).
